# Experimental data reported in patent US11697680B2, “Anti-GP73 antibodies and immunoconjugates” (CUREAB GMBH, priority 2016, dated 2023).
# T1: Furin cleavage of recombinant GP73-HIS (Homo sapiens, UniProt Q8NBJ4)
# T1 construct: purchased Biolegend
# T1 sequence (Q8NBJ4 36-401 limits assumed): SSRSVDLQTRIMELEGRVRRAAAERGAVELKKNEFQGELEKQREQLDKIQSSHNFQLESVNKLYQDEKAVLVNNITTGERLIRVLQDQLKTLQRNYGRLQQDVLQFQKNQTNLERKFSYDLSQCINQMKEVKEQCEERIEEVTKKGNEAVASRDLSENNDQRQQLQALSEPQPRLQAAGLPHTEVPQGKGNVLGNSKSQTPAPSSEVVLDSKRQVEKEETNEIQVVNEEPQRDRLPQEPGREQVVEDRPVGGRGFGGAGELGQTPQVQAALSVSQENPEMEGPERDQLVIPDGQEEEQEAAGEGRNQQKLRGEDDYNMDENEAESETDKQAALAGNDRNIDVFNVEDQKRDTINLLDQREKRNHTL
# B1: G2-2: scFv clone with human IgG1 heavy and human Igk light constant regions; VH/VL SEQ ID NO: 2 and 3; binds rGP73 AA 36-55 (antibody, V domains shown)
# VH: EVQLLQSGGGVVQPGRSLRLSCAASGFTFSSYGMSWVRQAPGKGLEWVAVISYDGSNKYYADSVKGRFTISRDNSKNTLYLQMNSLRAEDTAVYYCAREGSAGMDVWGQGTTVTVSS
# VL: DIQMTQPSSLSASPGASASLTCTLRSDISVGFHRIYWYQQKPGSPPQYLLRYKSDSDKQQGSGVPSRFSGSKDASANAGILLISGLQSDDEADYYCVIWHTSGVVFGGGTKVEIK
# modifications: human IgG1 and Igk constant regions not cited; G2-2 heavy chain variable region (VH); G2-2 light chain variable region (VL)
# Experiments:
# peptide AA 36-55 of GP73 = peptide AA 36-55 of GP73 (Homo sapiens, UniProt Q8NBJ4); assay: Competition peptide ELISA with HRP-labeled antibodies; type: binding; conditions: unlabeled competing antibody at high concentration; binding antibody G2-1-HRP
# Description: A peptide ELISA was performed using horse radish peroxidase labeled G2-1 (G2-1-HRP) or G2-2 (G2-2-HRP) as binding antibodies and G2-1 or G2-2 as competing antibodies. […] Binding to peptide AA 36-55 of GP73 served as positive control (filled circle), negative control was binding to an unrelated peptide (filled diamond) as described in Example 5.
# ELISA was carried out in 96 well plates coated overnight with biotinylated peptide and blocked with 2% gelatine. Horse radish peroxidase labeled antibodies G2-1 (G2-1-HRP) or G2-2 (G2-2-HRP) were applied and incubated for 1.5 hours. For competition testing non labeled G2-1 or G2-2 was added at high concentration. For pH dependent binding the antibodies were applied in phosphate buffer pH 4.4, 5.4, 6.4 or 7.4. After extensive washing a chromogenic substrate (TMB Amersham) was added to detect peroxidase. The reaction was stopped and absorbance was read at 450 nm.
# [1] = biological target: T1, Furin cleavage of recombinant GP73-HIS; assay: Furin cleavage of GP73-HIS depending on antibody binding (capture ELISA); type: biochemical; conditions: 3 U and 1.5 U of Furin; 2 hours at 30° C.
# Excerpt: Measurements of Furin cleavage of GP73 using a range from 0 units to 3 units of Furin are depicted.
# Testing of Furin cleavage exploits the fact that antibodies G2-1 and G2-2 bind GP73 N-terminal of or at the furin cleavage site 56R whereas recombinant GP73 with C-terminal HIS tag (GP73-HIS) is detected by anti HIS antibody at the C-terminus of GP73. Plate bound anti human IgG can capture G2-1 or G2-2, which binds GP73-HIS. If furin cleavage occurs in a setting where G2-1 or G2-2 have already bound to GP73-HIS, only N-terminal part of GP73 will reside at the G2 antibodies. In contrast, if furin cleavage is hindered by G2 antibodies, GP73-HIS can be detected by an anti HIS antibody.
# Furin cleavage was carried out in 1.5 ml tubes. To test if G2 antibodies can hinder furin cleavage recombinant GOLPH-HIS protein (Biolegend) and G2-2 or G2-1 was incubated for 2 hours in 100 mM HEPES and 1 mM CaCl2 buffer pH 7.5 to allow antibody binding to GP73. […]
# From each reaction 2×100 ul were transferred to wells of a 96 well plate that had been coated over night with anti human IgG and was blocked with 1% gelatine in PBS. After one hour incubation at room temperature the plate was washed, incubated with anti HIS-hrp antibody for one hour, washed again, incubated with a chromogenic substrate (TMB Amersham) to detect peroxidase, stopped and read at 450 nm.
# GP73 peptide: […] = biological target: T2, GP73 peptide: […] (Homo sapiens, UniProt Q8NBJ4); assay: Biacore surface plasmon resonance, data fit for 1:1 binding; conditions: Biacore 1:1 binding fit, GP73 peptide SSRSVDLQTRIMELEGRVRR
# T2 construct: GP73 peptide: […]
# Description: In one embodiment, Kd is measured using surface plasmon resonance assays using a BIACORE®-2000 or a BIACORE®-3000 (BIAcore, Inc., Piscataway, N.J.) at 25° C. with immobilized antigen CM5 chips at […] response units (RU). Briefly, carboxymethylated dextran biosensor chips (CM5, BIACORE, Inc.) are activated with N-ethyl-N′-(3-dimethylaminopropyl) carbodiimide hydrochloride (EDC) and N-hydroxysuccinimide (NHS) according to the supplier's instructions. Antigen is diluted with 10 mM sodium acetate, pH 4.8, to 5 μg/ml (−0.2 μM) before injection at a flow rate of 5 μl/minute to achieve approximately 10 response units (RU) of coupled protein. Following the injection of antigen, 1 M ethanolamine is injected to block unreacted groups. For kinetics measurements, two-fold serial dilutions of antibody (0.58 nM to 200 nM) are injected in PBS with 0.05% polysorbate 20 (TWEEN-20™) surfactant (PEST) at 25° C. at a flow rate of approximately 25 μl/min. Association rates (kon) and dissociation rates (koff) are calculated using a simple one-to-one Langmuir binding model (BIACORE® T100 Evaluation Software) by simultaneously fitting the association and dissociation sensorgrams. The equilibrium dissociation constant (Kd) is calculated as the ratio koff/kon. See, e.g., Chen et al., J. Mol. Biol. 293:865-881 (1999). If the on-rate exceeds […] s^−1 by the surface plasmon resonance assay above, then the on-rate can be determined by using a fluorescent quenching technique that measures the increase or decrease in fluorescence emission intensity (excitation=295 nm; emission=340 nm, 16 nm band-pass) at 25° C. of a 20 nM anti-antigen antibody in PBS, pH 7.2, in the presence of increasing concentrations of antigen as measured in a spectrometer, such as a stop-flow equipped spectrophometer (Aviv Instruments) or a 8000-series SLM-AMINCO™ spectrophotometer (ThermoSpectronic) with a stirred cuvette.
molecule,measurement,setting,value
B1,competition with G2-1-HRP for peptide binding,peptide AA 36-55 of GP73,Competitive inhibition
same,Furin cleavage of GP73 after preincubation with antibody,[1],significant reduction in Furin cleavage
same,"koff, measurement 1 + 2 mean",GP73 peptide: […],0.001108 s⁻¹
same,"kon, measurement 1 + 2 mean",GP73 peptide: […],260200 M⁻¹ s⁻¹
same,Kd,"GP73 peptide: […]; read-out: Kd, measurement 1 + 2 mean",4.29 nM
